From paper PMC4600444 come the findings set out here.

This assay deals with Xis2d protein of CTnDOT (Bacteroides spp. (conjugative transposon CTnDOT)). In words: SEC. (Size exclusion chromatography separates by hydrodynamic size, large species first.)

In the case of “Xis2d protein of CTnDOT (natural protein)”, the stoichiometry N amounted to 2.

As usually defined, the stoichiometry N is the number of molecules, sites or subunits per partner or assembly.
